Publication PMC12220430
Where two headings read alike, the source gives them in different places.

Columns and labels:
[1] = biological target: T1, rPdxR (Sco1417) (Streptomyces coelicolor A3(2) M145) (UniProt Q9RKX6); assay: competition
T1 sequence: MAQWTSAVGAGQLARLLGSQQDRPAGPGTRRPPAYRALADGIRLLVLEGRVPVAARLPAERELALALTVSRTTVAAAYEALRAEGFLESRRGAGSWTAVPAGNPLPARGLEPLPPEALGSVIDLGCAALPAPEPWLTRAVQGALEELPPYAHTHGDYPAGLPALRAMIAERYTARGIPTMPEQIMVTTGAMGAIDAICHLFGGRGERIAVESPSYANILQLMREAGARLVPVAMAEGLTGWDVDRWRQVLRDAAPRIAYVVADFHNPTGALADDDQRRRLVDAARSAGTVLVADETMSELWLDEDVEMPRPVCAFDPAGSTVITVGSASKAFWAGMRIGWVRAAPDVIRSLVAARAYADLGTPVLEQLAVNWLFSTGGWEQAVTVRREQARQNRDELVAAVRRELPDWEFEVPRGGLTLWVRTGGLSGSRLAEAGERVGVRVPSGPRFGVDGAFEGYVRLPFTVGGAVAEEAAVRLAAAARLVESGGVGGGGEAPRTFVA

rPdxR (Sco1417) [2] = biological target: T2, rPdxR (Sco1417) (Streptomyces coelicolor A3(2) M145, UniProt Q9RKX6); assay: EMSA
T2 sequence: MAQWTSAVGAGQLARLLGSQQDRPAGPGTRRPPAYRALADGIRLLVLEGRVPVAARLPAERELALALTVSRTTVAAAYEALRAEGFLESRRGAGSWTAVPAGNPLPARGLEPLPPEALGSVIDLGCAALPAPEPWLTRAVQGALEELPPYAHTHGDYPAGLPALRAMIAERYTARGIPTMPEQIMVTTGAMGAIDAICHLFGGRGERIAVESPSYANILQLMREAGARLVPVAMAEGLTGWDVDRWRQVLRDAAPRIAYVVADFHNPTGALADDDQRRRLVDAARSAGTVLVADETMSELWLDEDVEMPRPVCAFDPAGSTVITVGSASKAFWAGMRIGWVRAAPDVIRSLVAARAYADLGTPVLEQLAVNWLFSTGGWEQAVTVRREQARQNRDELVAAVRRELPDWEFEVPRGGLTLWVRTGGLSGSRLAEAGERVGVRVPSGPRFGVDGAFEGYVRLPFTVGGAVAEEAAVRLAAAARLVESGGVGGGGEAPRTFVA

rPdxR (Sco1417) [3] = biological target: T2, rPdxR (Sco1417); assay: EMSA; remark: listed apart in the source

In the case of “ACTGCGCCATGGAAATCAGTCCACCTTCCCCAAATTGGCCATGGTTGACTCTTCTTCTGAAGCCACAGGGTGTCATGTGGCAGTCCACTACCACCACCCCAGGGGGCACTTCTTGTCCAGGCAGTCCAGACAGTCGAGGCAATCCGGGCAGTCCGGATGGTCCGGGCGACTCGCGCGGCGGCTGACGCAGCTCTACGGCGGTCTCGTCCTGTACGGAGCGAGTTCGGCGCTGCTGGTCAGGTCCGGGCTCGGCCTCGAACCGTGGAACGTGCTGCACCAG (double strand) [pdxRp]”, the binding [1] is reported as “binds”.

With “TGCTGGACACGGGTACCTCACTGGGGAGAAGGGGGGTTGTGCAGCAACGAGGAAACGTGAGGTGAGCAGGCCACAGCAAGGGCCAATGAGAAGGCGGTGGATCGTTTTCGTCCCCCGGGCGCTACGCCGCCCGCTCCACCAGGGCGGCCGGCGACTCGTCGTCCATCTCGAAGGCCAGCGGGAAGGGCGCGTGCCCGGCGAGGCGGAACCAGCGGACCTTGCGGTGCTCGCGCAGCCTGCGGGCCGCCCCCACCGCGTCGTTGTGGAAGCGGCGG (double strand) [pdxSTp]” the binding [1] was “binds”.

B1: R2 (dsDNA)
DNA 1: TCAACCATGGCCAATTTGGGGAAGGTGGACTGATTT
DNA 2: AAATCAGTCCACCTTCCCCAAATTGGCCATGGTTGA
B1: binds (rPdxR (Sco1417) [2]).

B2: ST2 (dsDNA)
DNA 1: CTTCTCATTGGCCCTTGCTGTGGCCTGCTC
DNA 2: GAGCAGGCCACAGCAAGGGCCAATGAGAAG
B2: binds (rPdxR (Sco1417) [2]).

B3: ST (dsDNA)
DNA 1: ACGAAAACGATCCACCGCCTTCTCATTGGCCCTTGCTGTGGCCTGCT
DNA 2: AGCAGGCCACAGCAAGGGCCAATGAGAAGGCGGTGGATCGTTTTCGT
B3: binds (rPdxR (Sco1417) [2]).

B4: ST2a (dsDNA)
DNA 1: CTTCTCATTGGCCCTTGCTAAAACCTGCTC
DNA 2: GAGCAGGTTTTAGCAAGGGCCAATGAGAAG
B4: no binding (rPdxR (Sco1417) [3]).

B5: ST2b (dsDNA)
DNA 1: CTTCTCAAAAACCCTTGCTGTGGCCTGCTC
DNA 2: GAGCAGGCCACAGCAAGGGTTTTTGAGAAG
B5: no binding (rPdxR (Sco1417) [3]).

B6: R1 (dsDNA)
DNA 1: TGGGGTGGTGGTAGTGGACTGCCACATGACACCCTGTGGCTTCAGAA
DNA 2: TTCTGAAGCCACAGGGTGTCATGTGGCAGTCCACTACCACCACCCCA
B6: binds (rPdxR (Sco1417) [2]).
